The source of these data is article PMC2613882, “The FF domains of yeast U1 snRNP protein Prp40 mediate interactions with Luc7 and Snu71” (BMC Biochemistry, 2008).

Test [1] addresses T1, GST-Prp40FF1-2 (amino acids 129-264) (Saccharomyces cerevisiae, UniProt P33203 129-264).
T1 construct: Prp40, S. cerevisiae, residues 129-264 (Prp40FF1-2); also called GST-FF1-2; source: E. coli BL21, purified (glutathione Sepharose 4B)
T1 sequence (looked up): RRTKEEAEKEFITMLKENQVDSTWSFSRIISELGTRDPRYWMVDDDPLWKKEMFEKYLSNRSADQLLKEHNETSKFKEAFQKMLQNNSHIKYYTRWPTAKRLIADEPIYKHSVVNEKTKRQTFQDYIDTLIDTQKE
In words: peptide or protein array; SPOT 15-mer peptides (3 aa shifts; alanine scan and substitution analysis of A24) on a β-alanine membrane, probed overnight at 4°C with 10 μg/ml purified GST fusion protein, detected with anti-GST antibody. To be noted: both partners purified.

Test [2] addresses T2, GST-Prp40FF1 (amino acids 129-201) (Saccharomyces cerevisiae, UniProt P33203 129-201).
T2 construct: Prp40, S. cerevisiae, residues 129-201 (Prp40FF1); also called GST-FF1; source: E. coli BL21, purified (glutathione Sepharose 4B)
T2 sequence (looked up): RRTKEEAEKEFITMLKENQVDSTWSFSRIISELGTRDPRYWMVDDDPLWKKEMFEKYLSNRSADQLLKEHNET
The test is described as above. To be noted: both partners purified.

B1: Snu71 peptide B1, H418LANDVHYDHHRSFK432 (peptide)
peptide: HLANDVHYDHHRSFK
notes: Snu71, S. cerevisiae, residues 418-432
Turning to B1, the binding result in test [1] is reported as “binds”.

B2: Luc7 peptide A24, D214RRLADHFLGKIHLG228 (peptide)
peptide: DRRLADHFLGKIHLG
notes: also called A24 peptide
For the molecule B2, the binding result in test [1] and in test [2] was “binds” each time.
